The chains are these.
B1: CPEB3 Ribozyme (parent)
chain: UAACAGGGGGCCACAGCAGAAGCGUUCACGUCGCAGCCCCUGUCAGAUUCUGGUGAAUCUGCGAAUUCUGCUGUAUAUCUC

In this data set the parent is B1. Nature of the data set: self-cleavage, relative activity (ratio to wild type); higher = more cleavage; in vitro, sequencing. A digest of the protocol:
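After error-prone PCR and barcoding, CPEB3 ribozyme mutant libraries were transcribed with T7 RNA polymerase at 37°C for 5 hours, then given 15 min with DNase I before an EDTA stop, and they cleaved during both steps. Reverse transcription with template switching preceded Illumina sequencing. Relative activity divides a variant's cleaved/total read fraction by the unmutated ribozyme's. At least 5 reads were required per variant, and three batches were averaged.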
Consider UAACAGAGGGCCACAGCAGAAGCGUUCACGUCGCAGCCCCCGUCAGAUUCUGGUGAAUCUGCGAAUUCUGCUGUAUAUCUC, for which the self-cleavage turned out to be 0.25.
On to UAACAGGGGGCCACAGCAGAAGCGUUCACGUCACAGCCCCUGUCAGAUUCUGGUGAAUCUGCGAAUUCUGCUGUAUACCUC, for which the self-cleavage came to 0.2.
Regarding UAACAGGGGGCCACAACAGAAGCGUUCACGUCGCAGCCCCGGUCAGAUUCUGGUGAAUCUGCGAAUUCUGCUGUAUAUCUC, the self-cleavage was 0.12.
For UAACAGGGGGCCACAGCAGAAGCGUUCACGUCGCUGCCCCUGUCAGAUUCUGGUGAAUCUGGGAAUUCUGCUGUAUAUCUC, the self-cleavage was 0.28.
Take UAACAGGGGGCCACAGCAGAAGCGUUCACGUCGCAGCCCCUGUCAGAUUCUGGCGAGUCUGCGAAUUCUGCUGUAUAUCUC: the self-cleavage was 0.66.
The figure for UAACAGGGGGCCCCAGCAGAAGCGUUCACGUCGCAGCCCCUGUCAGAUUCUGGUGAAUCUGCGAAUUCUGCUGUUUAUCUC is 0.99.
Under UAACAGGGGGCCACAGCAGAAGCGUUCACGUCGCAGCCCCUGUCAGAUUCUGGUGAAUCUGCGUCUUCUGCUGUAUAUCUC stands 0.13.
UAACAGGGGGCCACAGCAGAAGCGUUCACGUCGCAGCCCCUGUCAGAUUCUGGUGAAUCUGCGAAUUCUGCUGUAUUUCCC: the self-cleavage was 1.18.
The figure for UAACAGGGGGCCACAGCAGAAGCGUCCACGACGCAGCCCCUGUCAGAUUCUGGUGAAUCUGCGAAUUCUGCUGUAUAUCUC is 0.27.
On to UAACAGGGGGCCACAGCAGCAGCGUUCACGUCGCAGCCCCUGUCAGAUUCUGGUGAAUCUGCGAAUCCUGCUGUAUAUCUC, for which the self-cleavage amounted to 0.33.
As for UAACAGGGGGCCACAGCAGAAGCGUUCACGUCGCAGCCCCUGUCAGACUCUGGUGAAUCUGCGAAUCCUGCUGUAUAUCUC, the self-cleavage stood at 0.3.
The figure for UAACAGGGGGCCACAGCAGAAGCGUUCACAUCGCAGCCCCUGUCAGGUUCUGGUGAAUCUGCGAAUUCUGCUGUAUAUCUC is 0.41; for UAACAGGGGGCCACAUCAGAAGCGAUCACGUCGCAGCCCCUGUCAGAUUCUGGUGAAUCUGCGAAUUCUGCUGUAUAUCUC it is 0.2.
In the case of UAACAGGGGGCCACAGCAGAAGCGUUCACGUCGCAGCCCCUGUCAGAUUCUGGUGAAUCUGCGUAUUCUGCUGUAUGUCUC, the self-cleavage was found to be 0.39.
The figure for UAACAGGGGGCCACAGCAGAAGCGUUCACGUCUCAGCCCCUGUCAGAUUCUGGUGAACCUGCGAAUUCUGCUGUAUAUCUC is 0.13; for UAACAGGGGGCCACGGCAGAAGCGUUCACGUCGCAGCCCCUGUCAUAUUCUGGUGAAUCUGCGAAUUCUGCUGUAUAUCUC it is 0.18.
The figure for UAACAGGGGGCCACAGCAGAAGCGUUCACGUCGUAGCCCCUGUCAGAUUCAGGUGAAUCUGCGAAUUCUGCUGUAUAUCUC is 0.34.
The figure for UAACAGGGGGCCACAGCAGAAGCGUUCACGUCGCAGCCCCUGUCAGAUUCUGGUGAAUCUGCGAAUUCUGCUAAAUAUCUC is 1.25.
As to UAACAGGGGGCCACAGCUGAAGCGUUCACGUCGCAGCCCCUAUCAGAUUCUGGUGAAUCUGCGAAUUCUGCUGUAUAUCUC, the self-cleavage was found to be 0.36.
The figure for UAACAGGGGGCCACAGCAGAAGCGUUCACGUCGCAGCCCCUGACAGAUUCUGGUGAAGCUGCGAAUUCUGCUGUAUAUCUC is 0.31; for UAACAGGGGGCCACAGCAGAAGCGUUCACGUCGCAGCCCCUGUCAGAUUCUGGUGAAUUUGCGAAUUCUGCUGUACAUCUC it is 0.97.
For UAACAGGGGGCCACAGCAGAAGCGUUCACGUCGCAGCCCCUGUCUGAUUCUGGUGAAUCUGCGAAUUCUGCUGUAUGUCUC, the self-cleavage was 0.52.
The figure for UAACAGGGGGCCACAGCAGAACCGUUCACGUCGCAGGCCCUGUCAGAUUCUGGUGAAUCUGCGAAUUCUGCUGUAUAUCUC is 0.09.
On to UAACAGGGGGCCACAGCAGAAGCGUCCACGUCGCAGCCCCUGUCAGAUUCUGGUGAAUCUGCGAAUUCUGCUGUAUACCUC, for which the self-cleavage amounted to 0.42.
On to UAACAGGGGGCCACAGCAGAAGCGGUCACGCCGCAGCCCCUGUCAGAUUCUGGUGAAUCUGCGAAUUCUGCUGUAUAUCUC, for which the self-cleavage is 0.19.
The figure for UAACAGGGGGCCACAGCAGAAGCGUUCACGUCGCAGCCCCUGUCUGAUUCUGGUGAAUCUGCGAAUUCUGCUGUAUAUAUC is 0.8.
With UAACAGGGGGCCACAGCAGAAGCGUUUACGUCGCAGCCCCUGUCAGAUUCUGGUGAAUCUGCGAAUUCUGCUGUACAUCUC, the self-cleavage came to 0.19.
The figure for UAACAGGGGGCCACAGCAGAAGCGUUCACGUCGCAGCCCCUGUCAGAUUCUGGUGAAUCAGCGAAUUCUGCAGUAUAUCUC is 0.54.
Take UAACAGGGGGCCACAGCAGAAGCAUCCACGUCGCAGCCCCUGUCAGAUUCUGGUGAAUCUGCGAAUUCUGCUGUAUAUCUC: the self-cleavage is 0.3.
The figure for UAACAGAGGGCCACAGCAGAAGCGUUCACGUCGCAGCCCCUGUCAGAUUCUGGUGAAUCUGCGAAUUCCGCUGUAUAUCUC is 0.26.
Under UAACAGGGGGCCACAGCAGAAGCGUUCACUUCGCAGCCCCAGUCAGAUUCUGGUGAAUCUGCGAAUUCUGCUGUAUAUCUC stands 0.16.
As to UAACAGGGGGUCACAGCAGAAGCGUUCACGCCGCAGCCCCUGUCAGAUUCUGGUGAAUCUGCGAAUUCUGCUGUAUAUCUC, the self-cleavage was found to be 0.29.
The figure for UAACAGGGGGCCACAGCAGAAGCGUUCACAUCGCAGCCCCUGUCAGAUUCUGGUGAAUCUGCGAGUUCUGCUGUAUAUCUC is 0.38; for UAACAGGGGGCCACAGCAGAAGCGUUCAUGUCGCAGCCCCUGUCAGAUUCUGGUGAAUCUGCGAAUUCAGCUGUAUAUCUC it is 0.3; for UAACAGGGGGGCACAGCAGAAGCGUUCACGUCGCAGCCCCUGUCAGAUUCUGGUGAAUCAGCGAAUUCUGCUGUAUAUCUC it is 0.12.
For CAACAGGGGGCCACAGCAGAAGCGUCCACGUCGCAGCCCCUGUCAGAUUCUGGUGAAUCUGCGAAUUCUGCUGUAUAUCUC, the self-cleavage is 0.38.
Under UAACAGGGGGCCACAGCAGAAGCGUUAACGUCGCAGCCCCUGUCAGAUUCUGGUGAAUCUGCGAGUUCUGCUGUAUAUCUC stands 0.25; under UAACAGGGGGCCACAGCAGAAGCGUUCACGUCGCAGCCCCUGUCUGAUUCUGGUGAAUCUGCGAAUACUGCUGUAUAUCUC, 0.24; under UAACAGGGGGCCUCAGCAGAAGCGUUCACGUCGCAGCCCCUGUCGGAUUCUGGUGAAUCUGCGAAUUCUGCUGUAUAUCUC, 1.1.
In the case of UAACAGGGGGCCACAGCUGAAGCGUUCACGUCGCAGCCCCUGUCAGAUUAUGGUGAAUCUGCGAAUUCUGCUGUAUAUCUC, the self-cleavage is 0.4.
Under UAACAGGGGGCCACAGCAGAAGCGUUCACGUCGCUGCCCCGGUCAGAUUCUGGUGAAUCUGCGAAUUCUGCUGUAUAUCUC stands 0.32.
Under UAACACGGGGCCACAGCAGAAGCGUUCACGUCGCAGCCCCUGUCAGAUUCUGGUGAAUCUGCGAAUUCUGCUGUAUAUCUC stands 0.36; under UAACAGGGUGCCACAGCAGAAGCGUUCACGUCGCAGCCCCUGUCAGAUUCUGGUGAAUCUGCGAACUCUGCUGUAUAUCUC, 0.15; under UAACAGGGGGCCACAGCAGAAGCGUUCACGUCGCAGCCCCUGUCAGAUUCUGGUUAAUCUGCGAAUUCUGCUGUGUAUCUC, 0.92.
With UAACACGGGGCCACAGCAGAAGCGUUCACGUCGCAGCCCCUGUCAGAUUCAGGUGAAUCUGCGAAUUCUGCUGUAUAUCUC, the self-cleavage came to 0.38.
Turning to UAACAGGGGGCAACAGCAGAAGCGUUCACGUCGCAGCCCCUGUCAUAUUCUGGUGAAUCUGCGAAUUCUGCUGUAUAUCUC, the self-cleavage came out at 0.38.
The figure for UAACAGGGGGCCACAGCAGAAGCGUUCGCGUCGCAGCCCCUGUCAGAUUCUGGUGAAUCUGCGAAUUCUGCUGUAUAUCAC is 0.72; for UAACAGGGAGCCACAGCAGGAGCGUUCACGUCGCAGCCCCUGUCAGAUUCUGGUGAAUCUGCGAAUUCUGCUGUAUAUCUC it is 0.37.
The figure for UAACAGGGAGCCACAGCAGCAGCGUUCACGUCGCAGCCCCUGUCAGAUUCUGGUGAAUCUGCGAAUUCUGCUGUAUAUCUC is 0.39; for GAACAGGGGGCCACAGCAGAAGCGUUCGCGUCGCAGCCCCUGUCAGAUUCUGGUGAAUCUGCGAAUUCUGCUGUAUAUCUC it is 0.55.
Take UAACAGGGGGCCACAGCAGAAGCGUUCACGUCGCCGCCCCCGUCAGAUUCUGGUGAAUCUGCGAAUUCUGCUGUAUAUCUC: the self-cleavage amounted to 0.72.
The figure for UAACUGGGGGCCACAGCAGAAGCGUUCACGUCGCAGCCCCUGUCAGAUUCUGGUGAAUCUGCGAAUUCUGCUGUACAUCUC is 1.13.
As for UAGCAGGGGGCCACAGCCGAAGCGUUCACGUCGCAGCCCCUGUCAGAUUCUGGUGAAUCUGCGAAUUCUGCUGUAUAUCUC, the self-cleavage came to 0.46.
Under UAACAGGGGGCUACAGCAGAAGCGUUCACGUCGCAGCCCCUGUCAGAUUCUGGUGAAUCUGCGAGUUCUGCUGUAUAUCUC stands 1.07; under UAUCAGGGGGCCACUGCAGAAGCGUUCACGUCGCAGCCCCUGUCAGAUUCUGGUGAAUCUGCGAAUUCUGCUGUAUAUCUC, 1.06.
UAACAGGGGGCCACAGCAGGAGCGUUCACGUCGCAGCCCCUGUCAGAUUCUGGUGAAUCUGCAAAUUCUGCUGUAUAUCUC: the self-cleavage turned out to be 0.63.
Under UAACAGGGGGCCACAGCAGAAGCGUUCACGCCGCAGCCCCUGUCAGAUUCUGGUGAAUAUGCGAAUUCUGCUGUAUAUCUC stands 0.29.
The figure for UAACAGGGGGCCACAGCAGAAGCGUUCACGUCGCAGCCCCUGUCAGAUUCUGGUGAAUCAGCGAAUUCUGCUGUAUAUAUC is 0.88.
The figure for UAACAGGGGGCCACAGCAGAAGCGCUCACGUCGCAGCCCCUGUCAGAUUCUGGUGAAUCUGGGAAUUCUGCUGUAUAUCUC is 0.18; for UAACAGGGGGCCACAGCAGAAGCGUUCACGUCGCAGCCCCUGUCAGAUUCUGGCGAAUCUGCGGAUUCUGCUGUAUAUCUC it is 0.86; for UAACAGGGGGCCACAGCAGAAGCGUUCACGUCGCAGCCCCUGUCAGAUUCUGGCGAAUCUGCGAAUUCUGCUGUAUAUCCC it is 1.09.
On to UAACAGGGGGCCACAGCAGAAGUGUUCACGUUGCAGCCCCUGUCAGAUUCUGGUGAAUCUGCGAAUUCUGCUGUAUAUCUC, for which the self-cleavage came out at 0.14.
UAACAGGGGGCCACAGCAGUAGCGUUCACGUCGCAGCCCCUGUCAGAUUCUGGUGAAUCUGCGAAAUCUGCUGUAUAUCUC: the self-cleavage was determined as 0.3.
Under UAACAGGGGGCCACAGCAGAAGCGUUCACGUCGCAGCCCCCGUCAGAUUCUGGUGAAUCAGCGAAUUCUGCUGUAUAUCUC stands 0.68; under UAACAGGGGGCCACAGCAGAAGCGUUCACGUCGCAGCCCCUGUCAGAUCCUGGUGAAUCUGCGAAUUCAGCUGUAUAUCUC, 0.25; under UAACAGGGGGCCACAGCAGAAGCGUUCACGUCGCAGCCCCUGGCAGAUUCUGGUGUAUCUGCGAAUUCUGCUGUAUAUCUC, 0.36.
Take UAACAGGGGGCCACAGCAGAAGCGUUAACGUCGCAGCCCCUGUCAGAUUCUGGUGAAUCUGCGAAUUCUGCUGUAUAUCCC: the self-cleavage is 0.66.
Take UAACAGGGGGCCACAGCAGAAGCGUUCACGUCGCAGCCCCUGUCAGAUUCUGGUGAAUCUGCGAAUUCUGCAGCAUAUCUC: the self-cleavage was 1.16.
